Results reported in paper PMC5788503, “Hepatitis B virus core protein allosteric modulators can distort and disrupt intact capsids” (eLife, 2018).

Biological target: the molecule itself
Experiment: negative stain electron microscopy; Cp149 assembly reaction, 50 mM HEPES, 300 mM NaCl, 10 uM dimer, no CpAM

B1: Hepatitis B virus core protein assembly domain, Cp149 (domain or fragment)
chain: MDIDPYKEFGATVELLSFLPSDFFPSVRDLLDTAAALYRDALESPEHCSPHHTALRQAILCWGDLMTLATWVGTNLEDPASRDLVVSYVNTNVGLKFRQLLWFHISCLTFGRETVLEYLVSFGVWIRTPPAYRPPNAPILSTLPETTVV
notes: Hepatitis B virus subtype adyw core protein (Cp), assembly domain: the first 149 residues of the 183-residue protein; Purified as a homodimer; Dimers were assembled into capsids at 10 uM dimer in 300 mM NaCl, 50 mM HEPES pH 7.5; The apo capsid comparator PDB 1QGT is cited without its construct being named; also called purified dimeric assembly domain; apo-capsids; source: E. coli, purified by …
- binding result: binds
